{"source": "patent US20210355235A1", "about": "“Compositions and Methods For Treating Cancer with Anti-Renalase antibodies and Anti-PD1 antibodies” (YALE UNIVERSITY, priority 2017, published 2021)", "molecules": {"B1": {"name": "m28-RNLS: rabbit anti-renalase monoclonal raised against RNLS peptide RP-220; heavy chain SEQ ID NO:9, light chain SEQ ID NO:10 (antibody)", "heavy": "METGLRWLLLVAVLKGVQCQSVEESGGRLVTPGTPLTLTCTVSGFSLSSFAVGWVRQAPGKGLEYIGIISSVGITRYASWAAGRFTISKTSTTVDLKITSPTTEDTATYFCARYGYSGDVNRLDLWGQGTLVTVSSGQPKAPSVFPLAPCCGDTPSSTVTLGCLVKGYLPEPVTVTWNSGTLTNGVRTFPSVRQSSGLYSLSSVVSVTSSSQPVTCNVAHPATNTKVDKTVAPSTCSKPTCPPPELLGGPSVFIFPPKPKDTLMISRTPEVTCVVVDVSQDDPEVQFTWYINNEQVRTARPPLREQQFNSTIRVVSTLPIAHQDWLRGKEFKCKVHNKALPAPIEKTISKARGQPLEPKVYTMGPPREELSSRSVSLTCMINGFYPSDISVEWEKNGKAEDNYKTTPAVLDSDGSYFLYSKLSVPTSEWQRGDVFTCSVMHEALHNHYTQKSISRSPGK", "light": "MDTRAPTQLLGLLLLWLPGATFAQVLTQTASPVSAAVGGTVTINCQASQSVYDNNNLAWYQQKPGQPPKQLIYGASTLASGVSSRFKGSGSGTQFTLTISGVQCDDAATYYCLGEFSCSSADCFAFGGGTEVVVKGDPVAPTVLIFPPSADLVATGTVTIVCVANKYFPDVTVTWEVDGTTQTTGIENSKTPQNSADCTYNLSSTLTLTSTQYNSHKEYTCKVTQGTTSVVQSFNRGDC", "modifications": "1D-28-4 full length heavy chain amino acid; 1D-28-4 full length light chain amino acid"}}, "key": {"[1]": {"test_system": "YUMM mouse melanoma tumor", "test": "anti-PD1 resistant YUMM melanoma engrafted into immunocompetent C57B6 mice", "type": "in vivo", "conditions": "qPCR", "method": "Experiments were conducted to assess the synergism between anti-RNLS antibody and anti-PD1 antibody against a tumor cell line that is resistant to anti-PD1 agents (i.e., YUMM) (FIG. 35). The anti-PD1 resistant mouse melanoma cell line (YUMM) was engrafted into immunocompetent C57B6 mice. After the engrafted YUMM tumor volume reached about 100 mm^3 (i.e., day 0), treatments were administered on days 0, 7, 9, and 12, as indicated by the arrows on […].\nExperiments were conducted to measure PD1 and PD-L1 mRNA expression by qPCR in unfractioned tumor mass after treatment with anti-RNLS antibody (m28) alone, anti-PD1 antibody alone, and the combination of anti-RNLS antibody (m28) and anti-PD1 antibody (FIG. 36).\nExperiments were conducted to measure CD8a mRNA expression by qPCR in unfractioned tumor mass after treatment with anti-RNLS antibody (m28) alone, anti-PD1 antibody alone, and the combination of anti-RNLS antibody (m28) and anti-PD1 antibody."}, "A375.S2 xenograft tumors": {"test_system": "A375.S2 xenograft tumors", "type": "in vivo", "method": "Briefly, tumor tissues were formalin-fixed, paraffin-embedded and cut into 5-m sections on glass slides. The slides were de-paraffinized and hydrated, followed by antigen retrieval in a pressure cooker containing 10 mM sodium citrate, pH6 buffer. The sections were blocked in 3% hydrogen peroxide for 30 min and 2.5% normal horse serum in PBS/0.1% Tween20 for 1 h followed by incubation with primary antibody and isotype control IgG overnight at 4° C. The following antibodies were used in this study: m28-RNLS at 500 ng/ml; goat polyclonal anti-RNLS at 250 ng/ml (Abcam, ab31291); rabbit monoclonal anti-CD68 (BDBioscience, 1:100); rabbit monoclonal anti-CD163 (AbD Serotec, 1:100); rabbit monoclonal anti-CD86 (Abcam, 1:100); rabbit monoclonal anti-Ki67 (Vector Lab, VP-RM04, 1:100); rabbit monoclonal anti-p21, […], and total Stat3 (Cell Signaling Technologies, #2947, 1:100, #9145, 1:400, and #4904, 1:400, respectively). ImmPRESS peroxidase-anti-rabbit IgG (Vector Laboratories, Burlingame, Calif., USA) was used to detect primary antibodies. […] Slides were observed and photographed using an Olympus BX41 microscope and camera (Olympus America Inc, Center Valley, Pa., USA).\nFemale athymic, 18-20 g nude mice (nu/nu) were obtained from Charles River (Willimantic, Conn.) and housed in microisolator cages, with autoclaved bedding in a specific pathogen-free facility, with a 12-h light/dark cycle.\nXenograft tumors were established by subcutaneous injection of A375.S2 cells (2×10^6 in 100 μl of PBS, pH 7.6). When the tumors reached a volume of 50-100 mm^3, the mice were divided into a control group (n=14 treated with rabbit IgG, 40 μg by intraperitoneal injection (IP) once weekly, and 40 ug subcutaneously (SQ) around the tumor site every 3 days), and an experimental group (n=14) that received m28-RNLS (40 μg IP, once weekly, and 40 ug SQ, every 3 days). Tumor size was measured with digital calipers and volume was calculated according to the formula (length×width^2)×π/2.\nAt the end of the study, the mice were sacrificed, the tumors were excised and immediately snap-frozen in liquid nitrogen and stored at −80° C. Apoptosis was examined using the TUNEL assay (Roche in situ Apoptosis Detection System), according to the manufacturer's instructions. Sections were examined by light microscopy and the apoptosis index was determined by counting ≥1000 cells in 10 randomly selected high-power fields (×200 magnification)."}, "melanoma cell lines": {"test_system": "melanoma cell lines", "test": "melanoma cells in culture, viability / growth", "type": "cell-based, human", "method": "(§1) Total cell number and percentage of live cells were assessed by trypan blue exclusion, and cells were counted using a BioRad TC10 automated cell counter. For additional studies, cell viability was determined using WST-1 reagent (Roche Diagnostics, Indianapolis, Ind., USA) according to the manufacturers' instruction. Absorbances were read using a microplate reader (Power Waves XS, BioTek Instruments, Winooski, Vt., USA)."}, "A375.S2 melanoma cells": {"test_system": "A375.S2 melanoma cells", "test": "cell viability, WST-1 assay", "type": "cell-based, human", "conditions": "WST-1, 72 hrs", "method": "FIG. 19, comprising FIGS. 19A through 19D, is a series of images and charts showing that inhibition of RNLS signaling is cytotoxic to melanoma cells in vitro. […] FIG. 19B comprises two charts depicting relative cell viability: Left panel: Cells were treated with indicated antibodies for 72 hrs and cell viability was determined using WST-1; m28-RNLS (also known as 1D-28-4), m37-RNLS (also known as 1D-37-10): monoclonal antibodies raised against RNLS peptide RP220; Right panel: A375.S2 cells treated with increasing doses of m28-RNLS for 72 hrs and cell viability determined with a WST-1 assay; n=6, * indicates p<0.05 and ** indicates p<0.005. FIG. 19C comprises representative photos of A375.S2, SkMel28, and SkMel5 after 72 hrs incubation with either control rabbit IgG or m28-RNLS. FIG. 19D is a chart depicting relative cell viability, comprising amino acid (AA) sequence of RNLS peptide antagonist (RP220A).\nas §1"}, "[2]": {"conditions": "immunofluorescence / western blot"}}, "note": "Entries after “also recorded” stand apart in the source; their conditions may differ. Read-outs that look alike come from different tables or passages of the source."}
{"molecule": "B1", "values": [{"measurement": "CD8a mRNA expression in unfractioned tumor mass (cytotoxic T cells)", "setting": "[1]", "value": "activates cytotoxic T cells"}, {"measurement": "number of CD163+ TAMs", "setting": "A375.S2 xenograft tumors; immunofluorescence", "value": "considerable decrease; also recorded: decreases"}, {"measurement": "RNLS protein expression in tumors", "setting": "A375.S2 xenograft tumors; [2]", "value": "dramatic reduction; also recorded: decreases; also recorded: marked reduction"}, {"measurement": "total and phosphorylated STAT3 (p-Y705-STAT3) in tumors", "setting": "A375.S2 xenograft tumors; [2]", "value": "significantly decreased; also recorded: marked reduction"}, {"measurement": "ratio of CD86+ to CD163+ TAMs", "setting": "A375.S2 xenograft tumors; mouse, in vivo", "value": "increases"}, {"measurement": "TUNEL positive cells (apoptosis)", "setting": "A375.S2 xenograft tumors; n=14, control 4.3±0.2", "value": "13.3±0.6", "unit": "positive cells"}, {"measurement": "p21 positive cells (cell cycle regulator, IHC)", "setting": "A375.S2 xenograft tumors; n=14, control 12.2±1.0", "value": "24.2±2.4", "unit": "positive cells"}, {"measurement": "Ki67 positive cells (cellular proliferation marker, IHC)", "setting": "A375.S2 xenograft tumors; n=14, control 35.1±2.3", "value": "13.4±3.0 positive cells/high power field"}, {"measurement": "human (tumor) RNLS expression in tumor mass", "setting": "A375.S2 xenograft tumors; qPCR, human specific primers", "value": "without affecting"}, {"measurement": "mouse (endogenous) RNLS expression in tumor mass", "setting": "A375.S2 xenograft tumors; qPCR, mouse specific primers", "value": "significant reduction"}, {"measurement": "toxicity (overall animal health and activity)", "setting": "A375.S2 xenograft tumors; throughout the study", "value": "did not appear to be toxic"}, {"measurement": "tumor volume", "setting": "A375.S2 xenograft tumors; vs control rabbit IgG, 40 μg IP weekly and 40 ug SQ every 3 days", "value": "decreased tumor volume at all points tested"}, {"measurement": "melanoma cell viability / growth in culture", "setting": "melanoma cell lines", "value": "decreased the viability of all (total of 5) melanoma cell lines tested"}, {"measurement": "melanoma cell viability / growth in culture", "setting": "melanoma cell lines; listed as 1D-28-4", "value": "inhibits melanoma cells in culture"}, {"measurement": "cell viability", "setting": "A375.S2 melanoma cells", "value": "increasing levels of cytotoxicity in correlation with increasing treatment concentrations"}]}
